Data as given in publication PMC8543862, “Characterization of a highly xylose tolerant β-xylosidase isolated from high temperature horse manure compost” (BMC Biotechnology, 2021).

System: O=[N+]([O-])c1ccc(O[C@@H]2OC[C@@H](O)[C@H](O)[C@H]2O)cc1
Experiment: purified protein
Assay type: biochemical, uncultured bacterium
Details: 50 mM sodium phosphate pH 6, 37 °C, 20 min, 1-20 mM substrate, kcat unit not given

Substance: XylP81 (uncultured bacterium)
- Km: 5.3 mM
